In IntAct's records for PubMed 16083711:

B1: DNA mismatch repair protein Mlh1 (Homo sapiens), P40692 (parent)
chain: MSFVAGVIRRLDETVVNRIAAGEVIQRPANAIKEMIENCLDAKSTSIQVIVKEGGLKLIQIQDNGTGIRKEDLDIVCERFTTSKLQSFEDLASISTYGFRGEALASISHVAHVTITTKTADGKCAYRASYSDGKLKAPPKPCAGNQGTQITVEDLFYNIATRRKALKNPSEEYGKILEVVGRYSVHNAGISFSVKKQGETVADVRTLPNASTVDNIRSIFGNAVSRELIEIGCEDKTLAFKMNGYISNANYSVKKCIFLLFINHRLVESTSLRKAIETVYAAYLPKNTHPFLYLSLEISPQNVDVNVHPTKHEVHFLHEESILERVQQHIESKLLGSNSSRMYFTQTLLPGLAGPSGEMVKSTTSLTSSSTSGSSDKVYAHQMVRTDSREQKLDAFLQPLSKPLSSQPQAIVTEDKTDISSGRARQQDEEMLELPAPAEVAAKNQSLEGDTTKGTSEMSEKRGPTSSNPRKRHREDSDVEMVEDDSRKEMTAACTPRRRIINLTSVLSLQEEINEQGHEVLREMLHNHSFVGCVNPQWALAQHQTKLYLLNTTKLSEELFYQILIYDFANFGVLRLSEPAPLFDLAMLALDSPESGWTEEDGPKEGLAEYIVEFLKKKAEMLADYFSLEIDEEGNLIGLPLLIDNYVPPLEGLPIFILRLATEVNWDEEKECFESLSKECAMFYSIRKQYISEESTLSGQQSEVPGSIPNSWKWTVEHIVYKALRSHILPPKHFTEDGNILQLANLPDLYKVFERC
partner: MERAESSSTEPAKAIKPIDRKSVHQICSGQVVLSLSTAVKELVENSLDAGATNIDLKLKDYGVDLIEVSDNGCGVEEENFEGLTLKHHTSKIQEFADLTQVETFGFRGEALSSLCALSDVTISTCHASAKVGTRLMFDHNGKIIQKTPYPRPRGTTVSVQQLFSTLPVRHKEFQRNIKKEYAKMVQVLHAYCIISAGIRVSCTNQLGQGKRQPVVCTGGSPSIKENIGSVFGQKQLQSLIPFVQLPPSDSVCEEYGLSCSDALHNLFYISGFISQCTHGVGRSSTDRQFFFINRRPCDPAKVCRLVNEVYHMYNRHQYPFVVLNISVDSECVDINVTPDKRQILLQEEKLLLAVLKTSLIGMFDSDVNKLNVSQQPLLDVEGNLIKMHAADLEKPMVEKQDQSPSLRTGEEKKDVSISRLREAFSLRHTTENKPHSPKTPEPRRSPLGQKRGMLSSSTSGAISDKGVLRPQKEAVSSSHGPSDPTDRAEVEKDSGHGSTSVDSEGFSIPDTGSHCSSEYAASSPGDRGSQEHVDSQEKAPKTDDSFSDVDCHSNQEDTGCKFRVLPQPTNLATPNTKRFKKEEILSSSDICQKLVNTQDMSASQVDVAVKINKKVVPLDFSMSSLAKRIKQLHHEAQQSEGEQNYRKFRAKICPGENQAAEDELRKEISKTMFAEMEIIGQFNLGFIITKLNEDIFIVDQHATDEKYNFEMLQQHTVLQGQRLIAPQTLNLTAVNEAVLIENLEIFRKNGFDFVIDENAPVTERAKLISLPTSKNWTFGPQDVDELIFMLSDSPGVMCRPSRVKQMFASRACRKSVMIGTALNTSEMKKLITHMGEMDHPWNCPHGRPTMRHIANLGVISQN

Variants of: B1
Conditions: with pms2_human PMS2, P54278

| Variant | effect of a mutation on the interaction |
| --- | --- |
| F80V | with no effect |
| G67R | with no effect |
| S93G | with no effect |
| A29S | with no effect |
| I107R | with no effect |
| P28L | with no effect |
| K84E | with no effect |
| C77R | with no effect |

Second part, the variant after the results:

| effect of a mutation on the interaction | Variant |
| --- | --- |
| with no effect | S247P |
| with no effect | I219V |
| with no effect | V213M |
| with no effect | L155R |
| with no effect | H329P |
| with no effect | K443Q |
